Experimental data from patent US20250163167A1 (SYNTHEKINE, published 2025).

Columns and labels:
[1] = target: T1, hIL10Rb-his (Sino Biological, Catalog#10945) (human, UniProt Q08334 20-220); experiment: SPR; ratio of experimental to calculated Rmax
T1 construct: Bought; also called Sino Biological cat#10945-H08H; not shown: C-terminal poly-His tag
T1 sequence: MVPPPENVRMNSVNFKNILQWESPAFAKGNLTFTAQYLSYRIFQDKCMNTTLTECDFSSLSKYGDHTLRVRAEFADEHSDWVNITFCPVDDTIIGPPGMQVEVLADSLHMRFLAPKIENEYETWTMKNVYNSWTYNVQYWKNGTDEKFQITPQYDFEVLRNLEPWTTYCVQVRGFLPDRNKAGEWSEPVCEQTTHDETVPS

[2] = target: T1, hIL10Rb-his (Sino Biological, …); experiment: SPR Biacore T200; biotinylated dual VHH captured on CAP biotin chip, hIL10Rb-his analyte; 1:1 Langmuir fit
[3] = target: T2, hIL10Ra-his (Sino Biological, Catalog#10419) (human, UniProt Q13651 22-235); experiment: SPR Biacore T200; biotinylated dual VHH captured on CAP biotin chip, hIL10Ra-his analyte; kon, koff and Rmax printed N/A
T2 construct: Bought; also called Sino Biological cat#10419-H08H; not shown: C-terminal poly-His tag
T2 sequence: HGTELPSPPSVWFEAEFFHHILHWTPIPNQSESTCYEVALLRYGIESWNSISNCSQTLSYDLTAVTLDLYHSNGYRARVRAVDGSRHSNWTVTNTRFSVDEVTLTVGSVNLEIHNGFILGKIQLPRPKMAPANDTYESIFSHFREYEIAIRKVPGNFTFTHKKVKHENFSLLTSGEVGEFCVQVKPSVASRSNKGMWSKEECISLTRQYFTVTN

[4] = target: T1, hIL10Rb-his (Sino Biological, …); experiment: SPR Biacore T200; mono-Fc VHH captured on Protein A chip, hIL10Rb-his analyte; 1:1 Langmuir fit (row flagged: inaccurate fit)
Description: To confirm and evaluate binding affinities of the binding of the hIL10Rb sdAbs, a representative example from each clonotype generated was selected for evaluation of binding via SPR. […] RMAX<100 RU indicates surface density compatible with kinetics analysis. Calculated Rmax values were generated using the equation: Rmax=Load (RU)×valency of ligand×(Molecular weight of analyte/Molecular weight of ligand). Surface activity was defined as the ratio of experimental/calculated Rmax.
One representative example from each clonotype of IL10a generated in accordance with Examples 1-3 was selected for evaluation of binding via SPR as follows. […] All experiments were conducted in 10 mM Hepes, 150 mM NaCl, 0.05% (v/v) Polysorbate 20 (PS20) and 3 mM EDTA (HBS-EP+ buffer) on a Biacore T200 instrument equipped with a Protein A derivatized sensor chip (Cytiva). Mono-Fc VHH ligands were flowed at 5 μl/min for variable time ranging from 18 to 300 seconds, reaching the capture loads listed in the tables below. Following ligand capture, injections of a 2-fold dilution series of the extracellular domain of the […] modified to incorporate a C-terminal poly-His sequence, typically comprising at least five concentrations between 1 μM and 1 nM, were performed in either high performance or single cycle kinetics mode. Surface regeneration was achieved by flowing 10 mM glycine-HCl, pH 1.5 (60 seconds, 50 μL/min).

[5] = target: T2, hIL10Ra-his (Sino Biological, …); experiment: SPR Biacore T200; biotinylated dual VHH captured on CAP biotin chip, hIL10Ra-his analyte; 1:1 Langmuir fit

B1: hIL10Ra_VHH17-hIL10Rb_VHH16 biotin (bispecific antibody)
chain: QVQLQESGGGSVQAGGSLRLSCAASGYSNCSYDMTWYRQAPGKEREFVSAIHSDGSTRYADSVKGRFFISQDNAKNTVYLQMNSLKPEDTAMYYCKTDPLHCRAHGGSWYSVRANYWGQGTQVTVSSGGGSQVQLQESGGGSVEAGGSLRLSCAASGYTHSSYCMGWFRQAPGKEREGVAAIDVDGSTTYADSVKGRFTISKDNAKNTLYLQMNSLKPEDTGMYYCAAEFADCSSNYFLPPGAVRYWGQGTQVTVSS
modifications: conjugated to biotin (site not stated)
Activity [1]: 34%
Kd [2]: 2.9 nM
koff [2]: 0.00045 s⁻¹
kon [2]: 160000 M⁻¹ s⁻¹
Kd [3]: < 5 nM

B2: hIL-10Rb_VHH16 Mono-Fc (Fc fusion)
chain: QVQLQESGGGSVEAGGSLRLSCAASGYTHSSYCMGWFRQAPGKEREGVAAIDVDGSTTYADSVKGRFTISKDNAKNTLYLQMNSLKPEDTGMYYCAAEFADCSSNYFLPPGAVRYWGQGTQVTVSS
notes: Mono-Fc VHH captured on Protein A; not shown: mono-Fc part
Kd [4]: 7540 nM
koff [4]: 0.0221 s⁻¹
kon [4]: 2930 M⁻¹ s⁻¹

B3: hIL10Ra_VHH12-hIL10Rb_VHH27 biotin (bispecific antibody)
chain: QVQLQESGGGSVQAGGSLRLSCTVSGYTYSSNCMGWFRQAPGKEREGVATIYTGGGNTYYADSVKGRFTISQDNAKNTVYLQMNNLKPEDTAMYYCAAEPLSRVYGGSCPTPTFDYWGQGTQVTVSSGGGSQVQLQESGGGSVQTGGSLRLSCAASGYTYLRGCMGWFRQAPGKEREGVAVMDVVGDRRSYIDSVKGRFTISRDNAANSVYLQMDNLKPEDTAMYYCTAGPNCVGWRSGLDYWGQGTQVTVSS
modifications: conjugated to biotin (site not stated)
notes: also called IL10 VHH DR509 biotin; DR509
Activity [1]: 85%
Kd [5]: 0.2 nM
koff [5]: 0.00013 s⁻¹
kon [5]: 490000 M⁻¹ s⁻¹
Kd [2]: 1.9 nM
koff [2]: 0.003 s⁻¹
kon [2]: 1.6e+06 M⁻¹ s⁻¹

B4: hIL10Rb_VHH1-hIL10Ra_VHH9-biotin (bispecific antibody)
chain: QVQLQESGGGSVQAGGSLRLSCAASGYTYSSGCMGWFRQAPGKEREAVAAINSDGSTSYADSVKGRFTISKDNAKNTLYLQMNSLKPEDTAMYYCAAEPYCSGGYPRWSVAEFGYWGQGTQVTVSSGGGSQVQLQESGGGSVQAGGSLRLSCAVSGYAYSTYCMGWFRQAPGKEREGVAAIDSGGSTSYADSVKGRFTISKDNAKNTLYLRMNSLKPEDTAMYYCAAVPPPPDGGSCLFLGPEIKVSKADFRYWGQGTQVTVSS
modifications: conjugated to biotin (site not stated)
Activity [1]: 25%
Kd [5]: 1.1 nM
koff [5]: 0.00027 s⁻¹
kon [5]: 250000 M⁻¹ s⁻¹
Kd [2]: 2.7 nM
koff [2]: 0.0018 s⁻¹
kon [2]: 660000 M⁻¹ s⁻¹

B5: hIL10Rb_VHH12-hIL10Ra_VHH8 biotin (bispecific antibody)
chain: QVQLQESGGGSVQAGGSLRLSCAASGYTYSSYCMGWFRQAPGKEREGVAHIDSDGSTSYADSVKGRFTISKDNAKNTLYLQMNSLKPEDTAMYYCAADPIPGPGYCDGGPNKYWGQGTQVTVSSGGGSQVQLQESGGGSVQAGGSLRLSCAASGYTYSMYCMGWFRQAPGKEREGVAQINSDGSTSYADSVKGRFTISKDNAKNTLYLQMNSLKPEDTAMYYCAADSRVYGGSWYERLCGPYTYEYNYWGQGTQVTVSS
modifications: conjugated to biotin (site not stated)
Activity [1]: 42%
Kd [5]: 0.35 nM
koff [5]: 6.5e-05 s⁻¹
kon [5]: 180000 M⁻¹ s⁻¹
Kd [2]: 1.5 nM
koff [2]: 0.00068 s⁻¹
kon [2]: 440000 M⁻¹ s⁻¹
